These are literature values, as cited in article PMC3140970.

The data set has as its target IRSp53 SH3 (UniProt Q9UQB8).

Sequence of Eps8 (Q08509 whole entry): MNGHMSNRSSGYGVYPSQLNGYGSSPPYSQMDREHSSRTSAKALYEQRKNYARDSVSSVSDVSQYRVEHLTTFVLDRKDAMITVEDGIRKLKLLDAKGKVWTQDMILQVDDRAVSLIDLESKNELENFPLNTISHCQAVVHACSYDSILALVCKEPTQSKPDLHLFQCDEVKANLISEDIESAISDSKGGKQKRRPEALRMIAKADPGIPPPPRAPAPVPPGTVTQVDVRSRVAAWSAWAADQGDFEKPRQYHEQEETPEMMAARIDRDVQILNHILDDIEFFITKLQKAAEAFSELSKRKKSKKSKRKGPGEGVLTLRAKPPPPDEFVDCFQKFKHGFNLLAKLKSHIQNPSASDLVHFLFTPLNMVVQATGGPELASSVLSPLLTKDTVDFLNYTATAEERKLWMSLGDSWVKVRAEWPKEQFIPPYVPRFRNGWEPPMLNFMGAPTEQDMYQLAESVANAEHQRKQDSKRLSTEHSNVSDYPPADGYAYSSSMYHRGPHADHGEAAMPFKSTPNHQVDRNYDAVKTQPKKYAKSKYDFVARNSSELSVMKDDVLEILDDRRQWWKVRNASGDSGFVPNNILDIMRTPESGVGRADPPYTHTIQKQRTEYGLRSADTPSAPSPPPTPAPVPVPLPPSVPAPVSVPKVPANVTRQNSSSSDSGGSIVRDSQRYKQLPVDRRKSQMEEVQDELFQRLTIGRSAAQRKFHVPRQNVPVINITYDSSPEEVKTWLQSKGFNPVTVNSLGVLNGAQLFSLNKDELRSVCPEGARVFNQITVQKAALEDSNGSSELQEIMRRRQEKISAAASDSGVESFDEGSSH
Sequence of IRSp53 SH3 (Q9UQB8 374-437): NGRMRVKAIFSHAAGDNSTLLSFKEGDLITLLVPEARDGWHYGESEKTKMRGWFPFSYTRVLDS

Consider Eps8 (from UniProt Q08509), for which the Kd – broadly, a measure of binding affinity in units of concentration – was 10 nM.
